According to PMC3177407:

How the values were obtained:
[1] = target: Integrin α3β1 (UniProt P26006)
[2] = target: integrin alpha3beta1 (Homo sapiens) (UniProt P26006); settings: cited from earlier work
Sequence of integrin alpha3beta1 (Homo sapiens) (P26006 33-991, chain 1 of 2): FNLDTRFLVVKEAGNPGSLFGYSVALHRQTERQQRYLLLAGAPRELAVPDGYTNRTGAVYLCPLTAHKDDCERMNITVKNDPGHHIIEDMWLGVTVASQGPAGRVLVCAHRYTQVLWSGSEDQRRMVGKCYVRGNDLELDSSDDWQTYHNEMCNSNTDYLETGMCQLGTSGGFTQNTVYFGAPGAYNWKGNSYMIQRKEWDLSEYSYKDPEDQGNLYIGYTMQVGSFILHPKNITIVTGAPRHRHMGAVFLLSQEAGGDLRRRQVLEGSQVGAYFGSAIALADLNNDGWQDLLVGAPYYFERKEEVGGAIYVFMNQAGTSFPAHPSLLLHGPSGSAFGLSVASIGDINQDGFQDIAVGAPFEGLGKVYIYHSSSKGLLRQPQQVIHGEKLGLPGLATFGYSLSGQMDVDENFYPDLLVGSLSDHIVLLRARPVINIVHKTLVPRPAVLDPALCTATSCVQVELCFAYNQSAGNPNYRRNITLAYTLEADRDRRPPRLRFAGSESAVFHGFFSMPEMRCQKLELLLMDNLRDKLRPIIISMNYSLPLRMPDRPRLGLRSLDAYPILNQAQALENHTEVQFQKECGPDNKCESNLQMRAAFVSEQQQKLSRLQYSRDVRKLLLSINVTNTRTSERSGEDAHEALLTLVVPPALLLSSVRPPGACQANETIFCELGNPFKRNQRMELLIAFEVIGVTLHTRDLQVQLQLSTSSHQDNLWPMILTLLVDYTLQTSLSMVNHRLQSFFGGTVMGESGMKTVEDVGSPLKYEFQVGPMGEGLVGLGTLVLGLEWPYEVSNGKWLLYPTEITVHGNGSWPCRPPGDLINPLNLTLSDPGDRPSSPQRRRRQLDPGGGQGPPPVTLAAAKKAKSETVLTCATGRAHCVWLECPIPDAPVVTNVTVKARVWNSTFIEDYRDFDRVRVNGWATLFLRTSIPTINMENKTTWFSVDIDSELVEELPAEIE
Sequence of integrin alpha3beta1 (Homo sapiens) (P05556 21-728, chain 2 of 2, further chain): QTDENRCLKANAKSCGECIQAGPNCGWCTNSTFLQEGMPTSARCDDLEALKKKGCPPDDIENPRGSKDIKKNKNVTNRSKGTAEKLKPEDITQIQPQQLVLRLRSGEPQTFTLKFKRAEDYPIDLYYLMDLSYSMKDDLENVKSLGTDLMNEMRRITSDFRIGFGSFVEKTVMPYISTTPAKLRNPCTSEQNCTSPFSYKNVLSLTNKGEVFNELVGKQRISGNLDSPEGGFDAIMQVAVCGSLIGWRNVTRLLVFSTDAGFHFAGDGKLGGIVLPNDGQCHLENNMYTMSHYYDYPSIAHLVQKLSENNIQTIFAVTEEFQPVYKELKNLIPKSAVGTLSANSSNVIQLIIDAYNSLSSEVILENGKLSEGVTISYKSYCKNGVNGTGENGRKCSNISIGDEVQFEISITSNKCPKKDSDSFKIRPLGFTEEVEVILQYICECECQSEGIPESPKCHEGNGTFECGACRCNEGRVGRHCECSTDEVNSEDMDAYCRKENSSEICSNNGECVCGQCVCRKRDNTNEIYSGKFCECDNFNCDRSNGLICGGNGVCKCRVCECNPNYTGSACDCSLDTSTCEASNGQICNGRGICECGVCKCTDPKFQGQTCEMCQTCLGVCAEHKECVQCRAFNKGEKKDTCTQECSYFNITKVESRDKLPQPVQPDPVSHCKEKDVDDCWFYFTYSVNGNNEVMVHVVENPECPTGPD

Sequence of Integrin α3β1 (P26006 33-1051, chain 1 of 2): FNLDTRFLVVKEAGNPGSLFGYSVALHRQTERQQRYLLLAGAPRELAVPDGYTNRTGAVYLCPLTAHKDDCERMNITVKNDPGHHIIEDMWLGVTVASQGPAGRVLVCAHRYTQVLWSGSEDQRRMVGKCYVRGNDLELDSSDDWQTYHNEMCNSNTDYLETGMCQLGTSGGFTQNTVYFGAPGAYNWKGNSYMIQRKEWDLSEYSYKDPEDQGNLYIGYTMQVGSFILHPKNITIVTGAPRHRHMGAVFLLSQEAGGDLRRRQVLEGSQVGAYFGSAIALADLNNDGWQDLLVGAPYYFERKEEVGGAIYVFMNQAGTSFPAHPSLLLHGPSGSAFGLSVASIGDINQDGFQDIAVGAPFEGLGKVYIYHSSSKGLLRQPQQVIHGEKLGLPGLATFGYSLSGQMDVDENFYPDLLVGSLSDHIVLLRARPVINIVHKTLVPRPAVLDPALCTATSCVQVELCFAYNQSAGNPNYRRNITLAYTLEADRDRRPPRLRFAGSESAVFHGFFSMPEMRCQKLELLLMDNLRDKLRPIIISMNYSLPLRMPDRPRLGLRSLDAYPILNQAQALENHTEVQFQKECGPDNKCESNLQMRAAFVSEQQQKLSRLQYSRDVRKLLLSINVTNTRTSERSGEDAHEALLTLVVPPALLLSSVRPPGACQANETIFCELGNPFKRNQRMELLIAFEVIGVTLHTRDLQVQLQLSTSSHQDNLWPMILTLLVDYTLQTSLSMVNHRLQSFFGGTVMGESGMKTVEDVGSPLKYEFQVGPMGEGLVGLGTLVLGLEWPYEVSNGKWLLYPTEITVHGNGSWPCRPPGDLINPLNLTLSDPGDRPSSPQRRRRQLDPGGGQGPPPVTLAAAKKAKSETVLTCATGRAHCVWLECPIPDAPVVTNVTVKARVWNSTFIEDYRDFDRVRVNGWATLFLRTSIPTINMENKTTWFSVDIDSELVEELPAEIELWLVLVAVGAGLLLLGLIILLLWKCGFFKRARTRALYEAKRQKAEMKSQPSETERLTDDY
Sequence of Integrin α3β1 (P05556 21-728, chain 2 of 2, further chain): as the sequence (P05556 21-728, chain 2 of 2, further chain) above
Sequence of TIMP-2 (P16035 27-220): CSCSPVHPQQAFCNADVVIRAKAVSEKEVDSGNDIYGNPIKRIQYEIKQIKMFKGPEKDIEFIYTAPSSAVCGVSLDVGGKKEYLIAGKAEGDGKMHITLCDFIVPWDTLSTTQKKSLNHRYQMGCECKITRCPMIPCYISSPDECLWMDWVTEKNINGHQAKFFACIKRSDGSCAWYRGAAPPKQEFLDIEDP

| Substance | inhibition of VEGF-A-stimulated (10 ng/mL) growth of hMVECs, 100 nM protein [1] | Kd [2] |
| --- | --- | --- |
| Ala+TIMP-2 (from UniProt P16035 27-220) (natural protein) | 75% |  |
| TIMP-2 (from UniProt P16035) |  | 0.9 nM |
